According to US20220143024A1, “METHODS OF USING IMIPRIDONES” (Board of Regents, The University of Texas System, priority 2019, published 2022):

Tests used:
Test in all cases: BioID-MS +ONC201
ACAA2 (human) = ACAA2 (human) (UniProt P42765)
ACADSB (human) = ACADSB (human) (UniProt P45954)
ACADVL (human) = ACADVL (human) (UniProt P49748)
ACO2 (human) = ACO2 (human) (UniProt Q99798)
ALDH1L2 (human) = ALDH1L2 (human) (UniProt Q3SY69)
ALDH4A1 (human) = ALDH4A1 (human) (UniProt P30038)
ATPAF2 (human) = ATPAF2 (human) (UniProt Q8N5M1)
BCKDHB (human) = BCKDHB (human) (UniProt P21953)
C12orf10 (human) = C12orf10 (human) (UniProt Q9HB07)
C20orf7 (human) = C20orf7 (human) (UniProt Q5TEU4)
C2orf56 (human) = C2orf56 (human) (UniProt Q7L592)
C8orf82 (human) = C8orf82 (human) (UniProt Q6P1X6)
CARS2 (human) = CARS2 (human) (UniProt Q9HA77)
CLIC4 (human) = CLIC4 (human) (UniProt Q9Y696)
CLYBL (human) = CLYBL (human) (UniProt Q8N0X4)
COX4I1 (human) = COX4I1 (human) (UniProt P13073)
COX5A (human) = COX5A (human) (UniProt P20674)
DHRS4 (human) = DHRS4 (human) (UniProt Q9BTZ2)
EARS2 (human) = EARS2 (human) (UniProt Q5JPH6)
EFHA1 (human) = EFHA1 (human) (UniProt Q8IYU8)
ERAL1 (human) = ERAL1 (human) (UniProt O75616)
ETFB (human) = ETFB (human) (UniProt P38117)
FASTKD5 (human) = FASTKD5 (human) (UniProt Q7L8L6)
FOXRED1 (human) = FOXRED1 (human) (UniProt Q96CU9)
GATC (human) = GATC (human) (UniProt O43716)
GLUD1 (human) = GLUD1 (human) (UniProt P00367)
GRPEL1 (human) = GRPEL1 (human) (UniProt Q9HAV7)
HSD17B10 (human) = HSD17B10 (human) (UniProt Q99714)
IDI1 (human) = IDI1 (human) (UniProt Q13907)
LYRM4 (human) = LYRM4 (human) (UniProt Q9HD34)
MGME1 (human) = MGME1 (human) (UniProt Q9BQP7)
MRPL21 (human) = MRPL21 (human) (UniProt Q7Z2W9)
MRPS16 (human) = MRPS16 (human) (UniProt Q9Y3D3)
MRPS23 (human) = MRPS23 (human) (UniProt Q9Y3D9)
MTHFD2 (human) = MTHFD2 (human) (UniProt P13995)
NDUFA7 (human) = NDUFA7 (human) (UniProt O95182)
NDUFAF2 (human) = NDUFAF2 (human) (UniProt Q8N183)
NDUFAF3 (human) = NDUFAF3 (human) (UniProt Q9BU61)
NDUFAF7 (human) = NDUFAF7 (human) (UniProt Q7L592)
NDUFS6 (human) = NDUFS6 (human) (UniProt O75380)
NDUFV3 (human) = NDUFV3 (human) (UniProt P56181)
NMNAT3 (human) = NMNAT3 (human) (UniProt Q96T66)
PAM16 (human) = PAM16 (human) (UniProt Q9Y3D7)
PCK2 (human) = PCK2 (human) (UniProt Q16822)
PIN1 (human) = PIN1 (human) (UniProt Q13526)
PYCR1 (human) = PYCR1 (human) (UniProt P32322)
SDHA (human) = SDHA (human) (UniProt P31040)
SPRYD4 (human) = SPRYD4 (human) (UniProt Q8WW59)
T1MM44 (human) = T1MM44 (human) (UniProt O43615)
WARS2 (human) = WARS2 (human) (UniProt Q9UGM6)
XPNPEP3 (human) = XPNPEP3 (human) (UniProt Q9NQH7)
XPNPEP3 (human), sequence (Q9NQH7 32-507 limits assumed): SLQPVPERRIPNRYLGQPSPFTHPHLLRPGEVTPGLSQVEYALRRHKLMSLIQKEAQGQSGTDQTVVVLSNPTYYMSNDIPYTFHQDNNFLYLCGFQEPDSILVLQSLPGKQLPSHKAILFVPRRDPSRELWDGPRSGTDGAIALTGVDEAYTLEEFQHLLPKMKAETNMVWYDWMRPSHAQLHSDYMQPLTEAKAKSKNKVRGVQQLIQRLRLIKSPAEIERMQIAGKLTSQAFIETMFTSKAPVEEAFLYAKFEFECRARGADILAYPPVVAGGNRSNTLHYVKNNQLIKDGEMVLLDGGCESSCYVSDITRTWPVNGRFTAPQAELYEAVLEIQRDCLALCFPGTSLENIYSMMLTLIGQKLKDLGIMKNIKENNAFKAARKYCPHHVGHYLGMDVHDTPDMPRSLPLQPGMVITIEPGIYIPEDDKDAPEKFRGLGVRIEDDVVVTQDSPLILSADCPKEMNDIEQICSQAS

C2orf56 (human), sequence (Q7L592 47-441 limits assumed): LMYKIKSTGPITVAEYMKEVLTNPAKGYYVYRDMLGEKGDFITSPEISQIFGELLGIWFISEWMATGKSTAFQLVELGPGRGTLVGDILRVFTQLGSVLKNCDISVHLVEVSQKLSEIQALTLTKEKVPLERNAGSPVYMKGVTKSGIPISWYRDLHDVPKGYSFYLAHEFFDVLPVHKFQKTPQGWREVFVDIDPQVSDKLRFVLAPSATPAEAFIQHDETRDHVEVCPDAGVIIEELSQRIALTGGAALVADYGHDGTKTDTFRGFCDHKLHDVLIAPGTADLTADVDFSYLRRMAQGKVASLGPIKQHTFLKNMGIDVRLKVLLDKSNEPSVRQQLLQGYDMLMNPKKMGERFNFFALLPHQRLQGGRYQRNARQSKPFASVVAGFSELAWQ
NDUFAF7 (human), sequence (Q7L592 47-441 limits assumed): as above
BCKDHB (human), sequence (P21953 51-392 limits assumed): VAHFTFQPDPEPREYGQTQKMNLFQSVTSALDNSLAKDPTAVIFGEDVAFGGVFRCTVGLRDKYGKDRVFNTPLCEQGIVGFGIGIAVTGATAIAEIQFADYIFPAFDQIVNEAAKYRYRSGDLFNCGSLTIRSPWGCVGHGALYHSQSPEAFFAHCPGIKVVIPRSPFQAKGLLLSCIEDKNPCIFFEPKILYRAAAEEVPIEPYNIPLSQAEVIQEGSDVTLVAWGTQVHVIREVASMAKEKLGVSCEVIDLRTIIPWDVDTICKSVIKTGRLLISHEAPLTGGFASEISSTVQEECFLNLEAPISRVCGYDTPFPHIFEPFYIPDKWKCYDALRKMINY
C12orf10 (human), sequence (Q9HB07 48-376 limits assumed): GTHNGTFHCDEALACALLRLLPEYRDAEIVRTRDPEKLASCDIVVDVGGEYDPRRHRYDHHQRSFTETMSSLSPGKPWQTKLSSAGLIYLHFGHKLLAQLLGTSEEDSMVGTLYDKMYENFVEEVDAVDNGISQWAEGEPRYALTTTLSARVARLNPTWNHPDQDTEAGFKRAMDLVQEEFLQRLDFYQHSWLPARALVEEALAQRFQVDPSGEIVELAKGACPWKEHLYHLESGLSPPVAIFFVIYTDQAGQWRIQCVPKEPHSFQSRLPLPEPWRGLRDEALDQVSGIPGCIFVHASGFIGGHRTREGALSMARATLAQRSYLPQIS
CLIC4 (human), sequence (Q9Y696 2-253 limits assumed): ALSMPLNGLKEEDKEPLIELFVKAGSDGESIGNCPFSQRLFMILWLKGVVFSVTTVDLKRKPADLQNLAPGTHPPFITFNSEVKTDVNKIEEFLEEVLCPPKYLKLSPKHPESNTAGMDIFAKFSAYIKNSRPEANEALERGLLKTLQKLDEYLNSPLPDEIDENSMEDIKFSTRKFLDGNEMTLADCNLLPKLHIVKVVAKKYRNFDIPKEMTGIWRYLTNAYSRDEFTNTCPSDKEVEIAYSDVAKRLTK
ATPAF2 (human), sequence (Q8N5M1 41-289 limits assumed): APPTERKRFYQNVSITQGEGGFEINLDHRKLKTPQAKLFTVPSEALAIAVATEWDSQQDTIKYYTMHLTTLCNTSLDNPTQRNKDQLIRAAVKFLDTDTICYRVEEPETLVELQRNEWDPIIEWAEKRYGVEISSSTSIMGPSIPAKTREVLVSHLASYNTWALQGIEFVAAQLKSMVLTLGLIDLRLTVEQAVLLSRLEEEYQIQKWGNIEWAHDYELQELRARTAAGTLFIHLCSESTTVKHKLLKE
ERAL1 (human), sequence (O75616 44-437 limits assumed): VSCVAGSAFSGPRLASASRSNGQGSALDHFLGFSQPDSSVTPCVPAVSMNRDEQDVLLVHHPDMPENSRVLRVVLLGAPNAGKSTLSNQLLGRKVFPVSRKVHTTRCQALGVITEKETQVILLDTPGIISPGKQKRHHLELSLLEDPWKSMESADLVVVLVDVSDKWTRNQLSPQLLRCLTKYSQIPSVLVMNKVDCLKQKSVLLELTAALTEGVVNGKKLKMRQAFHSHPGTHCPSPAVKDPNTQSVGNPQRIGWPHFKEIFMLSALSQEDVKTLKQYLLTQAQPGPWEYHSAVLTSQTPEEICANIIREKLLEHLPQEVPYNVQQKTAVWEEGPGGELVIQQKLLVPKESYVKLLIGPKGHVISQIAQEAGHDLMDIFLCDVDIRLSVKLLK
PYCR1 (human), sequence (P32322 2-319 limits assumed): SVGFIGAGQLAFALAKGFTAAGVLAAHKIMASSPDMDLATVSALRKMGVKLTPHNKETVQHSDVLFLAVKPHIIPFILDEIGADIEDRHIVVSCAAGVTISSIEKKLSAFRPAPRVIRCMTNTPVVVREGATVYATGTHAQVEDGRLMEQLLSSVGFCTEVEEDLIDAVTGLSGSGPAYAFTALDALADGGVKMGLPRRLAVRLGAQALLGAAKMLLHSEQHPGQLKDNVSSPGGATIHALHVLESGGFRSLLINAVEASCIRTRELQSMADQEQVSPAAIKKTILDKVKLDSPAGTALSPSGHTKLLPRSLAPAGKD
FOXRED1 (human), sequence (Q96CU9 whole entry): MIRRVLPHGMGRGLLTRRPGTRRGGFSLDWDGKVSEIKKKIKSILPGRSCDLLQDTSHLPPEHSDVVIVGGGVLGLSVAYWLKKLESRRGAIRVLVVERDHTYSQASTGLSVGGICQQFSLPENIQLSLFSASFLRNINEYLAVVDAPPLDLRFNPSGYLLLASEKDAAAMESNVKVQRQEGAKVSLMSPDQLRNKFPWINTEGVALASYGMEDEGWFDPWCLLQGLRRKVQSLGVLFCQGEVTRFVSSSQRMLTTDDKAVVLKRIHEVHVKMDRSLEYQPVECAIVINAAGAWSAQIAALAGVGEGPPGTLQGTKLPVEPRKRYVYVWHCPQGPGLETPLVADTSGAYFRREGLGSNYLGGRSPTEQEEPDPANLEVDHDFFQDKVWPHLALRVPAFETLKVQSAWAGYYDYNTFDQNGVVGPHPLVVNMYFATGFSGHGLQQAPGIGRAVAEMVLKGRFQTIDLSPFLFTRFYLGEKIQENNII
EARS2 (human), sequence (Q5JPH6 42-523 limits assumed): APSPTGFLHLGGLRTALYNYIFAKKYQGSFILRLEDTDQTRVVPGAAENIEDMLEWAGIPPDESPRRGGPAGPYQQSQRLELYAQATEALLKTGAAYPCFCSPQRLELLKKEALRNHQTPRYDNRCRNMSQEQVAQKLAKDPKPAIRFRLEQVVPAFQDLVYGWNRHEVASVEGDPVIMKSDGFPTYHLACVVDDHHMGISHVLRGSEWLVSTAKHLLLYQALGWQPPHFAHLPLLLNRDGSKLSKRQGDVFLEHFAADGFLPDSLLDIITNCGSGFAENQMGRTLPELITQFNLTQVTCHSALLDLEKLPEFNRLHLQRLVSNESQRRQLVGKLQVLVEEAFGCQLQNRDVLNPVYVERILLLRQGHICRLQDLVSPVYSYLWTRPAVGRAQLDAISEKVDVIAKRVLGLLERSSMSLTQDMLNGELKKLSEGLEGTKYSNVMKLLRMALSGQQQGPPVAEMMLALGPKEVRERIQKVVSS
NDUFS6 (human), sequence (O75380 29-124 limits assumed): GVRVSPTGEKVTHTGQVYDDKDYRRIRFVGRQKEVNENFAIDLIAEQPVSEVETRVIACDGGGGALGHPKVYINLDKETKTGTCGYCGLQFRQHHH
FASTKD5 (human), sequence (Q7L8L6 28-764 limits assumed): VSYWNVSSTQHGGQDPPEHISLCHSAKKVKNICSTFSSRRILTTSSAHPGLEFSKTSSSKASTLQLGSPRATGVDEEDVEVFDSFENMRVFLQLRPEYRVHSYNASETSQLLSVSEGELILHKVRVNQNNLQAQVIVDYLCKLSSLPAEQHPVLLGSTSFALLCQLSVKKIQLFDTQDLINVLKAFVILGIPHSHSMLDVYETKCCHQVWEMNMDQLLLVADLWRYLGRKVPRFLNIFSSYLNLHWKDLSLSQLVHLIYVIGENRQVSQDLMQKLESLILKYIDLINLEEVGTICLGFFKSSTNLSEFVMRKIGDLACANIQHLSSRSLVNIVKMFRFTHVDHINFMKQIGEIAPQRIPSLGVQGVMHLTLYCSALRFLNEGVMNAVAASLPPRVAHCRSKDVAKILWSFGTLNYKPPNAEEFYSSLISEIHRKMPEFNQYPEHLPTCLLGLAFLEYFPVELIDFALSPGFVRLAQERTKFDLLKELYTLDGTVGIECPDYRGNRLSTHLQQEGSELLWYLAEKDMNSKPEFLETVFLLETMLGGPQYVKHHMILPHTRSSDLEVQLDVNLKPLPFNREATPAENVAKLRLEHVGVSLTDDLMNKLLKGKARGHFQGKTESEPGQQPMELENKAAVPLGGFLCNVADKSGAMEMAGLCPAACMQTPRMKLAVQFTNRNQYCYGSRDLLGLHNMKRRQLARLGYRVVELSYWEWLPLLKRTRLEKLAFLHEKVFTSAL
GATC (human), sequence (O43716 58-136 limits assumed): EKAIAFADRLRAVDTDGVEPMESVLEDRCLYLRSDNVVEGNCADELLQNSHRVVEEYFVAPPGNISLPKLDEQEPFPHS
COX4I1 (human), sequence (P13073 23-169 limits assumed): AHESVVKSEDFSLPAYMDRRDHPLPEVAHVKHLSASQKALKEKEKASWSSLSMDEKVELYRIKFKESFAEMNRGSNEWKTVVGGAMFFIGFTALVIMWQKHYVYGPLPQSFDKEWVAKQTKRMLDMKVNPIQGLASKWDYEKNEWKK

Substance: FlagBirA-ClpP (WT) (from UniProt P06709 1-321; Q16740 57-277) (enzyme)
- Log2 Fold change (vs control) (ACAA2 (human)): -0.88 log2
- Log2 Fold change (vs control) (ACADSB (human)): -1.76 log2
- Log2 Fold change (vs control) (ACADVL (human)): 0.55 log2
- Log2 Fold change (vs control) (ACO2 (human)): -5.46 log2
- Log2 Fold change (vs control) (ALDH1L2 (human)): -6.04 log2
- Log2 Fold change (vs control) (ALDH4A1 (human)): -2.21 log2
- Log2 Fold change (vs control) (ATPAF2 (human)): -2.58 log2
- Log2 Fold change (vs control) (BCKDHB (human)): -4.91 log2
- Log2 Fold change (vs control) (C12orf10 (human)): -3.75 log2
- Log2 Fold change (vs control) (C20orf7 (human)): -1.21 log2
- Log2 Fold change (vs control) (C2orf56 (human)): -2.44 log2
- Log2 Fold change (vs control) (C8orf82 (human)): -1.19 log2
- Log2 Fold change (vs control) (CARS2 (human)): -0.21 log2
- Log2 Fold change (vs control) (CLIC4 (human)): -0.49 log2
- Log2 Fold change (vs control) (CLYBL (human)): -1.63 log2
- Log2 Fold change (vs control) (COX4I1 (human)): -2.74 log2
- Log2 Fold change (vs control) (COX5A (human)): -2.87 log2
- Log2 Fold change (vs control) (DHRS4 (human)): -2.32 log2
- Log2 Fold change (vs control) (EARS2 (human)): -1.29 log2
- Log2 Fold change (vs control) (EFHA1 (human)): -0.47 log2
- Log2 Fold change (vs control) (ERAL1 (human)): -6.19 log2
- Log2 Fold change (vs control) (ETFB (human)): -1.35 log2
- Log2 Fold change (vs control) (FASTKD5 (human)): -4.91 log2
- Log2 Fold change (vs control) (FOXRED1 (human)): -4.09 log2
- Log2 Fold change (vs control) (GATC (human)): -5.98 log2
- Log2 Fold change (vs control) (GLUD1 (human)): -1.63 log2
- Log2 Fold change (vs control) (GRPEL1 (human)): -5.52 log2
- Log2 Fold change (vs control) (HSD17B10 (human)): 0.01 log2
- Log2 Fold change (vs control) (IDI1 (human)): -0.22 log2
- Log2 Fold change (vs control) (LYRM4 (human)): 0 log2
- Log2 Fold change (vs control) (MGME1 (human)): 0.27 log2
- Log2 Fold change (vs control) (MRPL21 (human)): -4.52 log2
- Log2 Fold change (vs control) (MRPS16 (human)): -3.81 log2
- Log2 Fold change (vs control) (MRPS23 (human)): -1.58 log2
- Log2 Fold change (vs control) (MTHFD2 (human)): -1.43 log2
- Log2 Fold change (vs control) (NDUFA7 (human)): -3.81 log2
- Log2 Fold change (vs control) (NDUFAF2 (human)): -7.94 log2
- Log2 Fold change (vs control) (NDUFAF3 (human)): -0.73 log2
- Log2 Fold change (vs control) (NDUFAF7 (human)): -1.89 log2
- Log2 Fold change (vs control) (NDUFS6 (human)): -6.32 log2
- Log2 Fold change (vs control) (NDUFV3 (human)): -8.18 log2
- Log2 Fold change (vs control) (NMNAT3 (human)): -4 log2
- Log2 Fold change (vs control) (PAM16 (human)): -5.91 log2
- Log2 Fold change (vs control) (PCK2 (human)): -5.32 log2
- Log2 Fold change (vs control) (PIN1 (human)): -0.11 log2
- Log2 Fold change (vs control) (PYCR1 (human)): -2.16 log2
- Log2 Fold change (vs control) (SDHA (human)): -0.94 log2
- Log2 Fold change (vs control) (SPRYD4 (human)): -1.26 log2
- Log2 Fold change (vs control) (T1MM44 (human)): -0.52 log2
- Log2 Fold change (vs control) (WARS2 (human)): -1.27 log2
- Log2 Fold change (vs control) (XPNPEP3 (human)): -1.63 log2
